The values below come from patent publication US20090042786A1.

The target of this assay is human Factor X activated (human) (UniProt P00742). In words: cell-based or functional assay.
Chain of UniProt P00742 (P00742 235-488 limits assumed): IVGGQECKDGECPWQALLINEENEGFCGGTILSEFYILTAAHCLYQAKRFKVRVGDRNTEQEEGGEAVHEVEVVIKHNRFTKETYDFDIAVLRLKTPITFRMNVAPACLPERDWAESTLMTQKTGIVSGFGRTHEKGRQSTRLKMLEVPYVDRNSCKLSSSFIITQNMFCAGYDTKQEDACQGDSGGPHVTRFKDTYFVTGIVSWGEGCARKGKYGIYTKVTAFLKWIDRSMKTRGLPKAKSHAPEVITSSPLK

Turning to Amblyomin-X recombinant protein, the inhibition of the amidolytic activity of human Factor X activated (dose at which inhibition is seen) was 5 to 10 µM.
